Laboratory results: IntAct's records for PubMed 17306257

B1: SH3 domain-binding protein 2 (Homo sapiens), P78314 (parent)
chain: MAAEEMHWPVPMKAIGAQNLLTMPGGVAKAGYLHKKGGTQLQLLKWPLRFVIIHKRCVYYFKSSTSASPQGAFSLSGYNRVMRAAEETTSNNVFPFKIIHISKKHRTWFFSASSEEERKSWMALLRREIGHFHEKKDLPLDTSDSSSDTDSFYGAVERPVDISLSPYPTDNEDYEHDDEDDSYLEPDSPEPGRLEDALMHPPAYPPPPVPTPRKPAFSDMPRAHSFTSKGPGPLLPPPPPKHGLPDVGLAAEDSKRDPLCPRRAEPCPRVPATPRRMSDPPLSTMPTAPGLRKPPCFRESASPSPEPWTPGHGACSTSSAAIMATATSRNCDKLKSFHLSPRGPPTSEPPPVPANKPKFLKIAEEDPPREAAMPGLFVPPVAPRPPALKLPVPEAMARPAVLPRPEKPQLPHLQRSPPDGQSFRSFSFEKPRQPSQADTGGDDSDEDYEKVPLPNSVFVNTTESCEVERLFKATSPRGEPQDGLYCIRNSSTKSGKVLVVWDETSNKVRNYRIFEKDSKFYLEGEVLFVSVGSMVEHYHTHVLPSHQSLLLRHPYGYTGPR

Variants of: B1
Conditions: with sh3k1_human SH3KBP1, Q96B97
Chain of sh3k1_human SH3KBP1, Q96B97 (Q96B97 whole entry): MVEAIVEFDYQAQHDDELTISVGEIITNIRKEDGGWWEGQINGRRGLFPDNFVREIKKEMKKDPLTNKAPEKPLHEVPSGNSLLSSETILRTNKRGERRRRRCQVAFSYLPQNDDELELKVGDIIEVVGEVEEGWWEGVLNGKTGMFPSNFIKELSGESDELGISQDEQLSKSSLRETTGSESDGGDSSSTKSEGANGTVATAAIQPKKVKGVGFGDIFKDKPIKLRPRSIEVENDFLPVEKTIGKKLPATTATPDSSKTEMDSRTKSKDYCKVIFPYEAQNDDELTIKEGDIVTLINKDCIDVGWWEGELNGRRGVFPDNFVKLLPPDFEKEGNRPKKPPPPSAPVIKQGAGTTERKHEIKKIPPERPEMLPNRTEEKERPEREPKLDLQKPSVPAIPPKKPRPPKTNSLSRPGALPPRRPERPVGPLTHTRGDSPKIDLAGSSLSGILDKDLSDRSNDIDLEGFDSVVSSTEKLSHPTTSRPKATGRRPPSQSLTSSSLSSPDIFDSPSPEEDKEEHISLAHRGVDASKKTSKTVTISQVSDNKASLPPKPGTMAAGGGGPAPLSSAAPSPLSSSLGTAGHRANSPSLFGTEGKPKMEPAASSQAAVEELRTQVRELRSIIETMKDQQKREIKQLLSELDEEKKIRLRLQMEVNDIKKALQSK

effect of a mutation on the interaction | Variant
decreasing interaction | R213A
